Source: patent USRE47150 (Bayer, dated 2018)

T1: mouse tissue factor pathway inhibitor (TFPI) (mouse, UniProt O54819 29-289, limits assumed)
T1 construct: bought; also called mTFPI; murine TFPI
T1 sequence (looked up): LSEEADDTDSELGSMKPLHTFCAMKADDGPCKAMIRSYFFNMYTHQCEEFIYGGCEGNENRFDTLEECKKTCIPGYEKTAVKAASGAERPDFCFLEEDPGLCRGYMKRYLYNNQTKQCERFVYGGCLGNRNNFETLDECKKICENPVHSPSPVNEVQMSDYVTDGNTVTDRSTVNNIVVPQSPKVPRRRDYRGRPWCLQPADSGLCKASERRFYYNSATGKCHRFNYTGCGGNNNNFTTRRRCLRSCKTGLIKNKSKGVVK

T2: human tissue factor pathway inhibitor (TFPI) (human, UniProt P10646 29-304, limits assumed)
T2 construct: bought; also called hTFPI; human TFPI
T2 sequence (looked up): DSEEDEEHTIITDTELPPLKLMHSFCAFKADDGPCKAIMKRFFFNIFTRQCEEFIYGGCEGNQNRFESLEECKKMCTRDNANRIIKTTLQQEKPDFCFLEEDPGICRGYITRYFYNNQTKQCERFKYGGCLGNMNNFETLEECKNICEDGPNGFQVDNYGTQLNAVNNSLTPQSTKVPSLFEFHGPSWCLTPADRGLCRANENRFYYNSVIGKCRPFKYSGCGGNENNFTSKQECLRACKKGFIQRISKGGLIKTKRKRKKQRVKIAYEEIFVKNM


Legend:
[1] = target: T1, mouse tissue factor pathway inhibitor …; test: competitive ELISA
[2] = target: T2, human tissue factor pathway inhibitor …; test: competitive ELISA

variant/HC_K99L [1] [ratio] | variant/HC_K99L [2] [ratio] | Binder
3.9 | 4.9 | 2A8 HC S31V+S35L+I51E+S54F+K99V/LC N51V+D91K (Fab, V domains shown) VH: QVQLVESGGGLVQPGGSLRLSCAASGFTFRVYGMLWVRQAPGKGLEWVSSERGFSSSTYYADSVKGRFTISRDNSKNTLYLQMNSLRAEDTAVYYCARVYRYWFDYWGQGTLVTVSS VL: DIELTQPPSVSVAPGQTARISCSGDNLRNYYAHWYQQKPGQAPVVVIYYDVNRPSGIPERFSGSNSGNTATLTISGTQAEDEADYYCQSWKDGVPVFGGGTKLTVLG
7.9 | 10.1 | 2A8 HC S35D+R52S+S55R+K99L/LC Y48F+N51V+D91W (Fab, V domains shown) VH: QVQLVESGGGLVQPGGSLRLSCAASGFTFRSYGMDWVRQAPGKGLEWVSSISGSRSSTYYADSVKGRFTISRDNSKNTLYLQMNSLRAEDTAVYYCARLYRYWFDYWGQGTLVTVSS VL: DIELTQPPSVSVAPGQTARISCSGDNLRNYYAHWYQQKPGQAPVVVIFYDVNRPSGIPERFSGSNSGNTATLTISGTQAEDEADYYCQSWWDGVPVFGGGTKLTVLG
4.5 | 3.9 | 2A8 HC S35D+K99L/LC unchanged (Fab, V domains shown) VH: QVQLVESGGGLVQPGGSLRLSCAASGFTFRSYGMDWVRQAPGKGLEWVSSIRGSSSSTYYADSVKGRFTISRDNSKNTLYLQMNSLRAEDTAVYYCARLYRYWFDYWGQGTLVTVSS VL: DIELTQPPSVSVAPGQTARISCSGDNLRNYYAHWYQQKPGQAPVVVIYYDNNRPSGIPERFSGSNSGNTATLTISGTQAEDEADYYCQSWDDGVPVFGGGTKLTVLG
2.7 | 8 | 2A8 HC S35D+I51D+S55R+K99V/LC Y48F+N51V (Fab, V domains shown) VH: QVQLVESGGGLVQPGGSLRLSCAASGFTFRSYGMDWVRQAPGKGLEWVSSDRGSRSSTYYADSVKGRFTISRDNSKNTLYLQMNSLRAEDTAVYYCARVYRYWFDYWGQGTLVTVSS VL: DIELTQPPSVSVAPGQTARISCSGDNLRNYYAHWYQQKPGQAPVVVIFYDVNRPSGIPERFSGSNSGNTATLTISGTQAEDEADYYCQSWDDGVPVFGGGTKLTVLG
6.1 | 4.4 | 2A8 HC S35D+K99L/LC Y48F+S89A+D91L+V96W (Fab, V domains shown) VH: QVQLVESGGGLVQPGGSLRLSCAASGFTFRSYGMDWVRQAPGKGLEWVSSIRGSSSSTYYADSVKGRFTISRDNSKNTLYLQMNSLRAEDTAVYYCARLYRYWFDYWGQGTLVTVSS VL: DIELTQPPSVSVAPGQTARISCSGDNLRNYYAHWYQQKPGQAPVVVIFYDNNRPSGIPERFSGSNSGNTATLTISGTQAEDEADYYCQAWLDGVPWFGGGTKLTVLG
12.6 | 10.9 | 2A8 HC S35D+S50A+S55R+K99L/LC Y48F+N51V+D91W (Fab, V domains shown) VH: QVQLVESGGGLVQPGGSLRLSCAASGFTFRSYGMDWVRQAPGKGLEWVSAIRGSRSSTYYADSVKGRFTISRDNSKNTLYLQMNSLRAEDTAVYYCARLYRYWFDYWGQGTLVTVSS VL: DIELTQPPSVSVAPGQTARISCSGDNLRNYYAHWYQQKPGQAPVVVIFYDVNRPSGIPERFSGSNSGNTATLTISGTQAEDEADYYCQSWWDGVPVFGGGTKLTVLG
20.3 | 19.9 | 2A8 HC S35D+K99L/LC Y48F+N51S+D91L+V96W (Fab, V domains shown) VH: QVQLVESGGGLVQPGGSLRLSCAASGFTFRSYGMDWVRQAPGKGLEWVSSIRGSSSSTYYADSVKGRFTISRDNSKNTLYLQMNSLRAEDTAVYYCARLYRYWFDYWGQGTLVTVSS VL: DIELTQPPSVSVAPGQTARISCSGDNLRNYYAHWYQQKPGQAPVVVIFYDSNRPSGIPERFSGSNSGNTATLTISGTQAEDEADYYCQSWLDGVPWFGGGTKLTVLG
4.6 | 4 | 2A8 HC S35D+S50A+K99L/LC Y48F+D91L+V96W (Fab, V domains shown) VH: QVQLVESGGGLVQPGGSLRLSCAASGFTFRSYGMDWVRQAPGKGLEWVSAIRGSSSSTYYADSVKGRFTISRDNSKNTLYLQMNSLRAEDTAVYYCARLYRYWFDYWGQGTLVTVSS VL: DIELTQPPSVSVAPGQTARISCSGDNLRNYYAHWYQQKPGQAPVVVIFYDNNRPSGIPERFSGSNSGNTATLTISGTQAEDEADYYCQSWLDGVPWFGGGTKLTVLG
3 | 3.9 | 2A8 HC S35D+R52S+K99L/LC Y48F+D91L+V96W (Fab, V domains shown) VH: QVQLVESGGGLVQPGGSLRLSCAASGFTFRSYGMDWVRQAPGKGLEWVSSISGSSSSTYYADSVKGRFTISRDNSKNTLYLQMNSLRAEDTAVYYCARLYRYWFDYWGQGTLVTVSS VL: DIELTQPPSVSVAPGQTARISCSGDNLRNYYAHWYQQKPGQAPVVVIFYDNNRPSGIPERFSGSNSGNTATLTISGTQAEDEADYYCQSWLDGVPWFGGGTKLTVLG
0.2 | 0.8 | 2A8 HC S35D+I51D+K99L/LC Y48F+D91W (Fab, V domains shown) VH: QVQLVESGGGLVQPGGSLRLSCAASGFTFRSYGMDWVRQAPGKGLEWVSSDRGSSSSTYYADSVKGRFTISRDNSKNTLYLQMNSLRAEDTAVYYCARLYRYWFDYWGQGTLVTVSS VL: DIELTQPPSVSVAPGQTARISCSGDNLRNYYAHWYQQKPGQAPVVVIFYDNNRPSGIPERFSGSNSGNTATLTISGTQAEDEADYYCQSWWDGVPVFGGGTKLTVLG
19.3 | 18.6 | 2A8 HC S35D+K99L/LC Y48F+D91L+V94T+V96W (Fab, V domains shown) VH: QVQLVESGGGLVQPGGSLRLSCAASGFTFRSYGMDWVRQAPGKGLEWVSSIRGSSSSTYYADSVKGRFTISRDNSKNTLYLQMNSLRAEDTAVYYCARLYRYWFDYWGQGTLVTVSS VL: DIELTQPPSVSVAPGQTARISCSGDNLRNYYAHWYQQKPGQAPVVVIFYDNNRPSGIPERFSGSNSGNTATLTISGTQAEDEADYYCQSWLDGTPWFGGGTKLTVLG
15.7 | 16.3 | 2A8 HC S31V+S54F+K99L/LC N51V (Fab, V domains shown) VH: QVQLVESGGGLVQPGGSLRLSCAASGFTFRVYGMSWVRQAPGKGLEWVSSIRGFSSSTYYADSVKGRFTISRDNSKNTLYLQMNSLRAEDTAVYYCARLYRYWFDYWGQGTLVTVSS VL: DIELTQPPSVSVAPGQTARISCSGDNLRNYYAHWYQQKPGQAPVVVIYYDVNRPSGIPERFSGSNSGNTATLTISGTQAEDEADYYCQSWDDGVPVFGGGTKLTVLG
12.1 | 14.9 | 2A8 HC S35D+S54F+S55R+K99L/LC D91L+V96W (Fab, V domains shown) VH: QVQLVESGGGLVQPGGSLRLSCAASGFTFRSYGMDWVRQAPGKGLEWVSSIRGFRSSTYYADSVKGRFTISRDNSKNTLYLQMNSLRAEDTAVYYCARLYRYWFDYWGQGTLVTVSS VL: DIELTQPPSVSVAPGQTARISCSGDNLRNYYAHWYQQKPGQAPVVVIYYDNNRPSGIPERFSGSNSGNTATLTISGTQAEDEADYYCQSWLDGVPWFGGGTKLTVLG
15.6 | 14.2 | 2A8 HC S35D+K99L/LC Y48F+D91L+G93S+V96W (Fab, V domains shown) VH: QVQLVESGGGLVQPGGSLRLSCAASGFTFRSYGMDWVRQAPGKGLEWVSSIRGSSSSTYYADSVKGRFTISRDNSKNTLYLQMNSLRAEDTAVYYCARLYRYWFDYWGQGTLVTVSS VL: DIELTQPPSVSVAPGQTARISCSGDNLRNYYAHWYQQKPGQAPVVVIFYDNNRPSGIPERFSGSNSGNTATLTISGTQAEDEADYYCQSWLDSVPWFGGGTKLTVLG
20.5 | 20.7 | 2A8 HC S35D+K99L/LC Y48F+D91L+D92S+V96W (Fab, V domains shown) VH: QVQLVESGGGLVQPGGSLRLSCAASGFTFRSYGMDWVRQAPGKGLEWVSSIRGSSSSTYYADSVKGRFTISRDNSKNTLYLQMNSLRAEDTAVYYCARLYRYWFDYWGQGTLVTVSS VL: DIELTQPPSVSVAPGQTARISCSGDNLRNYYAHWYQQKPGQAPVVVIFYDNNRPSGIPERFSGSNSGNTATLTISGTQAEDEADYYCQSWLSGVPWFGGGTKLTVLG
9.3 | 16.6 | 2A8 HC S31V+S50A+I51D+S55R+K99V/LC Y48F+D91L+V96W (Fab, V domains shown) VH: QVQLVESGGGLVQPGGSLRLSCAASGFTFRVYGMSWVRQAPGKGLEWVSADRGSRSSTYYADSVKGRFTISRDNSKNTLYLQMNSLRAEDTAVYYCARVYRYWFDYWGQGTLVTVSS VL: DIELTQPPSVSVAPGQTARISCSGDNLRNYYAHWYQQKPGQAPVVVIFYDNNRPSGIPERFSGSNSGNTATLTISGTQAEDEADYYCQSWLDGVPWFGGGTKLTVLG
8 | 10.4 | 2A8 HC S35D+I51E+S55R+K99L/LC Y48F+N51V+D91L+V96W (Fab, V domains shown) VH: QVQLVESGGGLVQPGGSLRLSCAASGFTFRSYGMDWVRQAPGKGLEWVSSERGSRSSTYYADSVKGRFTISRDNSKNTLYLQMNSLRAEDTAVYYCARLYRYWFDYWGQGTLVTVSS VL: DIELTQPPSVSVAPGQTARISCSGDNLRNYYAHWYQQKPGQAPVVVIFYDVNRPSGIPERFSGSNSGNTATLTISGTQAEDEADYYCQSWLDGVPWFGGGTKLTVLG
5.4 | 7.1 | 2A8 HC S35D+K99L/LC D91L+V96W (Fab, V domains shown) VH: QVQLVESGGGLVQPGGSLRLSCAASGFTFRSYGMDWVRQAPGKGLEWVSSIRGSSSSTYYADSVKGRFTISRDNSKNTLYLQMNSLRAEDTAVYYCARLYRYWFDYWGQGTLVTVSS VL: DIELTQPPSVSVAPGQTARISCSGDNLRNYYAHWYQQKPGQAPVVVIYYDNNRPSGIPERFSGSNSGNTATLTISGTQAEDEADYYCQSWLDGVPWFGGGTKLTVLG
13.6 | 10.2 | 2A8 HC S35D+K99L/LC Y48F+D91L+P95V+V96W (Fab, V domains shown) VH: QVQLVESGGGLVQPGGSLRLSCAASGFTFRSYGMDWVRQAPGKGLEWVSSIRGSSSSTYYADSVKGRFTISRDNSKNTLYLQMNSLRAEDTAVYYCARLYRYWFDYWGQGTLVTVSS VL: DIELTQPPSVSVAPGQTARISCSGDNLRNYYAHWYQQKPGQAPVVVIFYDNNRPSGIPERFSGSNSGNTATLTISGTQAEDEADYYCQSWLDGVVWFGGGTKLTVLG
